# Source: patent US20200371101A1
# Like-named read-outs stand apart in the source and are kept apart here. Bridge positions count the residues as written; N and C are the ends. Square brackets hold non-standard residues; d marks the D form. Ends that are not written are not given here. Az4 = not defined here
# Key:
# [1] = molecular target: His-tagged IDO1 human recombinant protein (71182, BPS Biosciences) (human) (UniProt P14902); experiment: cell-based or functional assay
# [2] = molecular target: His-tagged IDO1 human recombinant protein (71182, BPS Biosciences) (human) (UniProt P14902); experiment: cell-based or functional assay; remark: listed apart in the source
# [3] = molecular target: His-tagged IDO1 human recombinant protein (71182, BPS Biosciences) (human) (UniProt P14902); experiment: binding affinity, assay not named
# [4] = molecular target: His-tagged IDO1 human recombinant protein (71182, BPS Biosciences) (human) (UniProt P14902); experiment: ELISA binding assay; deprotected small molecule (hydroxyamidine free)
# [5] = molecular target: His-tagged IDO1 human recombinant protein (71182, BPS Biosciences) (human) (UniProt P14902); experiment: ELISA binding assay
# [6] = molecular target: His-tagged IDO1 human recombinant protein (71182, BPS Biosciences) (human) (UniProt P14902); experiment: ELISA binding assay; small molecule masked as its oxadiazolone (protected)
# [7] = molecular target: His-tagged IDO1 human recombinant protein (71182, BPS Biosciences) (human) (UniProt P14902); experiment: ELISA
# [8] = molecular target: His-tagged IDO1 human recombinant protein (71182, BPS Biosciences) (human) (UniProt P14902); experiment: sandwich ELISA: biotinylated macrocycle on NeutrAvidin plate, His-tagged IDO1 titrated, anti-6XHis-AP detection
# [9] = molecular target: His-tagged IDO1 human recombinant protein (71182, BPS Biosciences) (human) (UniProt P14902); experiment: ELISA: biotin-PEG3 macrocycle on NeutrAvidin plate, His-tagged human IDO1 titrated, AP-conjugated anti-6XHis antibody, fluorescence
# [10] = molecular target: His-tagged IDO1 human recombinant protein (71182, BPS Biosciences) (human) (UniProt P14902); experiment: binding analysis, method not named
# His-tagged IDO1 human recombinant protein (71182, BPS Biosciences) (human), sequence (P14902 2-403 limits assumed): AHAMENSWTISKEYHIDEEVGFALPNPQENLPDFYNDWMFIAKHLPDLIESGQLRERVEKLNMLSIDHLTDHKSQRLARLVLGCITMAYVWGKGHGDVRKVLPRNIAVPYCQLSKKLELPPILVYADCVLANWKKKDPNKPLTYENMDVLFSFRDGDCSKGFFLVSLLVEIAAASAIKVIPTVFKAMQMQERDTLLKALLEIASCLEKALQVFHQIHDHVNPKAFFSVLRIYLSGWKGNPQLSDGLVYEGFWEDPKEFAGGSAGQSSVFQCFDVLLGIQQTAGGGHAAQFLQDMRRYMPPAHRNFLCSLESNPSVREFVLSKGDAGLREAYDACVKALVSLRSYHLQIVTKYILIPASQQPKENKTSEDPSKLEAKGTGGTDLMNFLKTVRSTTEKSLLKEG
binder,measurement,setting,value
"[dW][dY][dV][dA][dY]-Az4 (triazole N-C; not fully specified (N-terminus); reading uncertain; also: small molecule Inh joined via PEG8 linker, attachment point not given here) [Deprotected-Inh-PEG8-wyvay]","IC50, IDO1 inhibition assay",[1],407 nM
same,"IC50, IDO1 inhibition assay",[2],350 nM
same,Inhibition Recombinant IDO1 IC50,[2],407 nM
same,EC50,[3],36 nM
same,EC50,[4],34 nM
[dW][dY][dV][dA][dY]-Az4 (triazole N-C; not fully specified (N-terminus); printed as Protected-Inh-PEG8-wyvay; reading uncertain; also: Inh hydroxyamidine masked as oxadiazolone) [Protected-Inh-PEG8-wyvay],fold decrease in binding affinity (EC50) against the deprotected heterobiligand,[5],3 fold
same,"IC50, IDO1 inhibition assay",[1],> 10000 nM
same,EC50,[6],92 nM
WYRAY (all D-amino acids; ring closed by triazole between flanking N-terminal Pra and C-terminal Az4; N-terminal biotin-PEG3) [biotin-PEG3-Cy(wyray)],EC50,[7],25 nM
same,EC50,[8],25 nM
same,EC50,[9],25 nM
AYRAY (all D-amino acids; ring closed by triazole between flanking N-terminal Pra and C-terminal Az4; N-terminal biotin-PEG3) [Biotin-PEG3-Cy(ayray)],EC50,[9],103 nM
WARAY (all D-amino acids; ring closed by triazole between flanking N-terminal Pra and C-terminal Az4; N-terminal biotin-PEG3) [Biotin-PEG3-Cy(waray)],EC50,[9],98 nM
WYAAY (all D-amino acids; ring closed by triazole between flanking N-terminal Pra and C-terminal Az4; N-terminal biotin-PEG3) [Biotin-PEG3-Cy(wyaay)],EC50,[9],65 nM
YRAY (all D-amino acids; ring closed by triazole between flanking N-terminal Pra and C-terminal Az4; N-terminal biotin-PEG3) [Biotin-PEG3-Cy(yray)],EC50,[9],113 nM
WRAY (all D-amino acids; ring closed by triazole between flanking N-terminal Pra and C-terminal Az4; N-terminal biotin-PEG3) [Biotin-PEG3-Cy(wray)],EC50,[9],79 nM
WYRY (all D-amino acids; ring closed by triazole between flanking N-terminal Pra and C-terminal Az4; N-terminal biotin-PEG3) [Biotin-PEG3-Cy(wyry)],EC50,[9],18 nM
"[dW][dY][dV][dA][dY] (triazole (positions not given here); also: ring closed by flanking Pra and Az4, not in chain) [wyvay macrocycle]",EC50,[7],45 nM
same,EC50,[10],45 nM
RFFYL (all D-amino acids; ring closed by triazole between flanking N-terminal Pra and C-terminal Az4; N-terminal biotin-PEG3) [biotin-PEG3-Cy(rffyl)],EC50,[8],125 nM
